Source: the supplement of paper PMC10567573

B1: WDFY1 (parent)
chain: LLIPKEDGVITASEDRTIRVWLKR
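Also: lentivirally expressed fusions sorted by FACS into six bins by GFP to DsRed ratio, PSI derived from sequencing read proportions per bin multiplied by bin number.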

Variants of: B1
Test: protein stability index of a GFP-peptide fusion (GPS, HEK-293T) (PSI 1-6); higher = more stable
Conditions: c terminus: a fixed tail appended
With LLIPKEDGVITASEDRTIRVWKKR the protein stability index was 2.91. Work on LLIPKEDGVITASEDRTIRVWYKR yielded a protein stability index of 2.83. In the case of LLIPKEDGVITASEDRTIRVWSKR, the protein stability index is reported as 2.79. In the case of LLIPKEDGVITASEDRTIRVWTKR, the protein stability index is reported as 2.54. LLIPKEDGVITASEDRTIRVWFKR showed a protein stability index of 2.15. Variant LLIPKEDGVITASEDRTIRVWCKR has a protein stability index of 2.48. Work on LLIPKEDGVITASEDRTIRVWVKR yielded a protein stability index of 2.17. For LLIPKEDGVITASEDRTIRVWNKR, the protein stability index was 2.77. LLIPKEDGVITASEDRTIRVWHKR showed a protein stability index of 2.75. Variant LLIPKEDGVITASEDRTIRVWPKR has a protein stability index of 4.22. With LLIPKEDGVITASEDRTIRVWMKR the protein stability index was 3.01. For LLIPKEDGVITASEDRTIRVWEKR, the protein stability index was 3.61. In the case of LLIPKEDGVITASEDRTIRVWIKR, the protein stability index is reported as 2.56. LLIPKEDGVITASEDRTIRVWRKR showed a protein stability index of 3.11. For LLIPKEDGVITASEDRTIRVWLKW, the protein stability index was 2.01. Variant LLIPKEDGVITASEDRTIRVWLKI has a protein stability index of 3.32. Variant LLIPKEDGVITASEDRTIRVWLKV has a protein stability index of 1.69. LLIPKEDGVITASEDRTIRVWLKK showed a protein stability index of 2.08. With LLIPKEDGVITASEDRTIRVWLKS the protein stability index was 2.18. Work on LLIPKEDGVITASEDRTIRVWLKM yielded a protein stability index of 1.53. LLIPKEDGVITASEDRTIRVWLKP gave a protein stability index of 2.07. LLIPKEDGVITASEDRTIRVWLKQ gave a protein stability index of 2.71. For LLIPKEDGVITASEDRTIRVWLKF, the protein stability index was 2.44. LLIPKEDGVITASEDRTIRVWLKH showed a protein stability index of 2.03. Work on LLIPKEDGVITASEDRTIRVWLKL yielded a protein stability index of 1.83. LLIPKEDGVITASEDRTIRVWLKG showed a protein stability index of 3.37. LLIPKEDGVITASEDRTIRVWLKD showed a protein stability index of 3.09. Work on LLIPKEDGVITASEDRTIRVWLKA yielded a protein stability index of 1.84. Work on LLIPKEDGVITASEDRTIRVWLKN yielded a protein stability index of 2.34. With LLIPKEDGVITASEDRTIRVWLKE the protein stability index was 2.48. LLIPKEDGVITASEDRTIRVWLKY showed a protein stability index of 2.07. For LLIPKEDGVITASEDVTIRVWLKR, the protein stability index was 1.95. For LLIPKEDGVITASEDHTIRVWLKR, the protein stability index was 1.6. In the case of LLIPKEDGVITASEDNTIRVWLKR, the protein stability index is reported as 3.22. LLIPKEDGVITASEDPTIRVWLKR showed a protein stability index of 2.37. LLIPKEDGVITASEDKTIRVWLKR showed a protein stability index of 1.74. In the case of LLIPKEDGVITASEDCTIRVWLKR, the protein stability index is reported as 1.6. LLIPKEDGVITASEDLTIRVWLKR showed a protein stability index of 2.22. With LLIPKEDGVITASEDTTIRVWLKR the protein stability index was 1.65. Variant LLIPKEDGVITASEDITIRVWLKR has a protein stability index of 1.43. Work on LLIPKEDGVITASEDYTIRVWLKR yielded a protein stability index of 1.41. Variant LLIPKEDGVITASEDMTIRVWLKR has a protein stability index of 2.19. For LLIPKEDGVITASEDGTIRVWLKR, the protein stability index was 1.89. LLIPKEDGVITASEDSTIRVWLKR showed a protein stability index of 1.7. LLIPKEDGVITASEDDTIRVWLKR gave a protein stability index of 2.6. Work on LLIPKEDGVITASEDQTIRVWLKR yielded a protein stability index of 2.2. Work on LLIPKEDGVITASEDETIRVWLKR yielded a protein stability index of 2.81. LLIPKEDGVITASEDATIRVWLKR gave a protein stability index of 1.92. With LLIPKEDGVITASEDRTIMVWLKR the protein stability index was 2.44. With LLIPKEDGVITASEDRTIPVWLKR the protein stability index was 2.45. LLIPKEDGVITASEDRTINVWLKR gave a protein stability index of 1.83. LLIPKEDGVITASEDRTIEVWLKR gave a protein stability index of 1.92. For LLIPKEDGVITASEDRTILVWLKR, the protein stability index was 1.31. In the case of LLIPKEDGVITASEDRTITVWLKR, the protein stability index is reported as 1.7. For LLIPKEDGVITASEDRTISVWLKR, the protein stability index was 1.91. With LLIPKEDGVITASEDRTIYVWLKR the protein stability index was 2.66. In the case of LLIPKEDGVITASEDRTIAVWLKR, the protein stability index is reported as 2.03. Variant LLIPKEDGVITASEDRTIKVWLKR has a protein stability index of 2.09. For LLIPKEDGVITASEDRTIVVWLKR, the protein stability index was 2.21. Variant LLIPKEDGVITASEDRTIWVWLKR has a protein stability index of 1.71. With LLIPKEDGVITASEDRTIDVWLKR the protein stability index was 2.28. Work on LLIPKEDGVITASEDRTICVWLKR yielded a protein stability index of 2.5. For LLIPKEDGVITASEDRTIGVWLKR, the protein stability index was 1.8. LLIPKEDGVITASEDRTYRVWLKR gave a protein stability index of 2.04. For LLIPKEDGVITASEDRTLRVWLKR, the protein stability index was 2.29. LLIPKEDGVITASEDRTPRVWLKR showed a protein stability index of 3.15. With LLIPKEDGVITASEDRTGRVWLKR the protein stability index was 2.93. For LLIPKEDGVITASEDRTKRVWLKR, the protein stability index was 1.74. For LLIPKEDGVITASEDRTQRVWLKR, the protein stability index was 3.97. Work on LLIPKEDGVITASEDRTSRVWLKR yielded a protein stability index of 2.94. With LLIPKEDGVITASEDRTTRVWLKR the protein stability index was 2.89. With LLIPKEDGVITASEDRTRRVWLKR the protein stability index was 3.55. Work on LLIPKEDGVITASEDRTVRVWLKR yielded a protein stability index of 2.61. For LLIPKEDGVITASEDRTCRVWLKR, the protein stability index was 2.07. In the case of LLIPKEDGVITASEDRTHRVWLKR, the protein stability index is reported as 2.34. Variant LLIPKEDGVITASEDRTERVWLKR has a protein stability index of 2.52. For LLIPKEDGVITASEDRTMRVWLKR, the protein stability index was 1.76. LLIPKEDGVITASEYRTIRVWLKR gave a protein stability index of 2.97. With LLIPKEDGVITASEDRTIRVWLPR the protein stability index was 2.15. LLIPKEDGVITASEDRTIRVWLVR gave a protein stability index of 2.28. For LLIPKEDGVITASEDRTIRVWLCR, the protein stability index was 2.24. Work on LLIPKEDGVITASEDRTIRVWLAR yielded a protein stability index of 1.79. LLIPKEDGVITASEDRTIRVWLTR showed a protein stability index of 2.62. In the case of LLIPKEDGVITASEDRTIRVWLRR, the protein stability index is reported as 2.74. LLIPKEDGVITASEDRTIRVWLNR gave a protein stability index of 2.63. For LLIPKEDGVITASEDRTIRVWLFR, the protein stability index was 3.36. For LLIPKEDGVITASEDRTIRVWLSR, the protein stability index was 2.1. For LLIPKEDGVITASEDRTIRVWLHR, the protein stability index was 1.7. LLIPKEDGVITASEDRTIRVWLER showed a protein stability index of 2.9. For LLIPKEDGVITASEDRTIRVWLWR, the protein stability index was 2.13. For LLIPKEDGVITASEDRTIRVWLQR, the protein stability index was 1.4. For LLIPKEDGVITASEDRTIRVWLLR, the protein stability index was 2.44. For LLIPKEDGVITASEDRTIRVWLDR, the protein stability index was 2.2. With LLIPKEDGVITASEDRTIRVWLIR the protein stability index was 2.1.
